Residue numbers refer to the chain shown, from its start. Names and notes keep the numbering of the source.
Legend:
[1] = system: synthetic HaloTag[3-19] peptide; assay: Stabilization of activity of LgHT-LgBiT variants by synthetic peptides in E. coli lysates; format: biochemical; settings: 10 micromolar or more synthetic peptide, 10 minutes at temperature, 50 nM JF646 HaloTag ligand
[2] = 10 nM protein, 125 micromolar HaloTag[3-19] synthetic peptide, 10 minutes, 2.5 nM TMR HaloTag ligand
[3] = Labeling kinetics of LgHT-LgBiT variants with TMR HaloTag ligand in E. coli lysates (fluorescence polarization); format: biochemical; settings: 200 micromolar HaloTag[3-19] synthetic peptide, 10 nM TMR HaloTag ligand, versus M2F control
[4] = Labeling kinetics with various HaloTag ligands (fluorescence polarization); format: biochemical; settings: proteins at 10 nM, ligand at 2.5 nM, Tris-buffered saline+0.01% CHAPS
Protocol: (§1) FIG. 132. Labeling kinetics of HaloTag7 and HaloTag[22-297](M2F+D53G+K140E)-12×Gly/Ser-LgBiT-3×Gly/Ser-6×His with HaloTag ligand JF549. Fluorescence polarization was monitored over time to observe labeling kinetics of JF549 HaloTag ligand by HaloTag standard protein or HaloTag[22-297](M2F+D53G+K140E)-12×Gly/Ser-LgBiT-3×Gly/Ser-6×His. The experiment was completed in Tris-buffered saline+0.01% CHAPS with proteins at 10 nM and ligand at 2.5 nM.
as §1, with “133.” for “132.”, “JF503.” for “JF549.”, “JF503” for “JF549”
as §1, with “134.” for “132.”, “JFX554.” for “JF549.”, “JFX554” for “JF549”
as §1, with “135.” for “132.”, “Oregon Green.” for “JF549.”, “Oregon Green” for “JF549”
FIG. 136. Labeling kinetics of HaloTag7 and HaloTag[22-297](M2F+D53G+K140E)-12×Gly/Ser-LgBiT-3×Gly/Ser-6×His with a FAM HaloTag ligand. Fluorescence polarization was monitored over time to observe labeling kinetics of FAM HaloTag ligand by HaloTag standard protein or HaloTag[22-297](M2F+D53G+K140E)-12×Gly/Ser-LgBiT-3×Gly/Ser-6×His. The experiment was completed in Tris-buffered saline+0.01% CHAPS with proteins at 10 nM and ligand at 2.5 nM.

[5] = system: DualTag peptide; assay: Dissociation kinetics after complementation with synthetic peptide (dilution, luminescence); settings: 100 nM protein, 200 nM peptide, diluted to 1 pM, furimazine
Protocol: After preincubation with peptide, samples were diluted to 1 pM in either buffer alone or buffer 100 nM Tag peptide. At various time points, samples were transferred into luminescent substrate (Furimazine) to monitor dissociation of the complex.

[6] = system: DualTag peptide; assay: BRET measurement of reporter stabilization by synthetic peptide; format: biochemical; settings: room temperature, HaloTag NanoBRET 618 Ligand, versus LgHT-LgBiT alone
Protocol: FIG. 122A-C. […] After preincubation with peptide at 4° C., solutions were diluted 100-fold into buffer and incubated at room temperature. At time points, samples were added 1:1 to buffer either containing or lacking 10 nM final HaloTag® NanoBRET® 618 Ligand. For the reporter alone condition, samples were added 1:1 to a solution containing 10 nM final VS-HiBiT peptide with or without the 618 ligand in order to complement the LgBiT to create the BRET donor. After the last time point, furimazine substrate was added, followed by measuring the FIG. 122(A) luminescent donor signal using a 450 nm bandpass filter and FIG. 122(B) luminescent acceptor signal using a 600 nm longpass filter. The BRET ratio FIG. 122(C) is determined by dividing the acceptor signal by the donor signal for each sample.

B1: D53G+V177E: reporter variant of FIG. 50 (protein)
chain: MFHYVDVGPRDGTPVLFLHGNPTSSYVWRNIIPHVAPTHRCIAPDLIGMGKSGKPDLGYFFDDHVRFMDAFIEALGLEEVVLVIHDWGSALGFHWAKRNPERVKGIAFMEFIRPIPTWDEWPEFARETFQAFRTTDVGRKLIIDQNVFIEGTLPMGVVRPLTEVEMDHYREPFLNPEDREPLWRFPNELPIAGEPANIVALVEEYMDWLHQSPVPKLLFWGTPGVLIPPAEAARLAKSLPNCKAVDIGPGLNLLQEDNPDLIGSEIARWLSTLEISGGSGGSGGGGSGGMVFTLEDFVGDWEQTAAYNLDQVLEQGGVSSLLQNLAVSVTPIQRIVRSGENALKIDIHVIIPYEGLSADQMAQIEEVFKVVYPVDDHHFKVILPYGTLVIDGVTPNMLNYFGRPYEGIAVFDGKKITVTGTLWNGNKIIDERLITPDGSMLFRVTINS
[1]
  Optimal temperature of peptide stabilization versus the non-peptide condition: ~35 °C

B2: M49F+S89A: reporter variant of FIG. 51 (protein)
chain: B1 chain with M49F, G53D, S89A, E177V
[1]
  Optimal temperature of peptide stabilization versus the non-peptide condition: ~35 °C

B3: M49F+L57I: reporter variant of FIG. 52 (protein)
chain: B1 chain with M49F, G53D, L57I, E177V
[1]
  Optimal temperature of peptide stabilization versus the non-peptide condition: ~40 °C

B4: M2F+D53S+V177E: more highly stabilized purified reporter variant of FIG. 60 (protein)
chain: B1 chain with G53S
[2]
  Loss of activity at 37° C. temperature challenge: loses less than half of its activity

B5: M2F+D53G+V177E: reporter variant of FIG. 53 (protein)
chain: MFHYVDVGPRDGTPVLFLHGNPTSSYVWRNIIPHVAPTHRCIAPDLIGMGKSGKPDLGYFFDDHVRFMDAFIEALGLEEVVLVIHDWGSALGFHWAKRNPERVKGIAFMEFIRPIPTWDEWPEFARETFQAFRTTDVGRKLIIDQNVFIEGTLPMGVVRPLTEVEMDHYREPFLNPEDREPLWRFPNELPIAGEPANIVALVEEYMDWLHQSPVPKLLFWGTPGVLIPPAEAARLAKSLPNCKAVDIGPGLNLLQEDNPDLIGSEIARWLSTLEISGGSGGSGGGGSGGMVFTLEDFVGDWEQTAAYNLDQVLEQGGVSSLLQNLAVSVTPIQRIVRSGENALKIDIHVIIPYEGLSADQMAQIEEVFKVVYPVDDHHFKVILPYGTLVIDGVTPNMLNYFGRPYEGIAVFDGKKITVTGTLWNGNKIIDERLITPDGSMLFRVTINSGSGHHHHHH
[3]
  Labeling with TMR HaloTag ligand, response to synthetic peptide complementation: faster ligand binding and labeling

B6: M2F+K140E: reporter variant of FIG. 54 and 58 (protein)
chain: B5 chain with G53D, K140E, E177V
[3]
  Labeling with TMR HaloTag ligand, response to synthetic peptide complementation: better fold response to complementation with the peptide

B7: M2F+D53G+K140E: triple mutant reporter, best candidate protein (protein)
chain: B5 chain with K140E, E177V
[3]
  Labeling with TMR HaloTag ligand, response to synthetic peptide complementation: best dynamic range of all combinations tested
[4]
  Function with FAM HaloTag ligand: functional
  Function with JF503 HaloTag ligand: functional
  Function with JF549 HaloTag ligand: functional
  Function with JFX554 HaloTag ligand: functional
  Function with Oregon Green HaloTag ligand: functional

B8: LgHT-LgBiT: tandem polypeptide reporter (Reporter) of FIG. 120, 122, 124 (protein)
chain: B5 chain with G53D, E177V
[5]
  Dissociation from the DualTag peptide: exceptionally slow dissociation kinetics
[6]
  LgBiT luminescence and LgHT ligand binding activity over time (Raw BRET ratio): remain intact for longer

B9: LgBiT: polypeptide component of a bioluminescent complex (β1-9-like polypeptide) (protein)
chain: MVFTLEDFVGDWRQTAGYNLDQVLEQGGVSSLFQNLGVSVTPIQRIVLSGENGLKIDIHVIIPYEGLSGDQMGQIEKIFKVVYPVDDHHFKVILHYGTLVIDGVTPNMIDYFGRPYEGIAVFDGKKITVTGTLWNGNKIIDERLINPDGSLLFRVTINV
[5]
  Dissociation from the DualTag peptide: faster dissociation

Reference: US20240368565A1, “COMPLEMENTATION-BASED TAGS AND REPORTERS FOR DUAL-MODALITY LABELING” (Promega Corporation, priority 2023, published 2024)
